Positions count from the first letter of the chain named.

Series [1] has as its target T1, HsMGME1 H180Q (Homo sapiens, UniProt Q9BQP7 21-344, H180Q).
T1 sequence: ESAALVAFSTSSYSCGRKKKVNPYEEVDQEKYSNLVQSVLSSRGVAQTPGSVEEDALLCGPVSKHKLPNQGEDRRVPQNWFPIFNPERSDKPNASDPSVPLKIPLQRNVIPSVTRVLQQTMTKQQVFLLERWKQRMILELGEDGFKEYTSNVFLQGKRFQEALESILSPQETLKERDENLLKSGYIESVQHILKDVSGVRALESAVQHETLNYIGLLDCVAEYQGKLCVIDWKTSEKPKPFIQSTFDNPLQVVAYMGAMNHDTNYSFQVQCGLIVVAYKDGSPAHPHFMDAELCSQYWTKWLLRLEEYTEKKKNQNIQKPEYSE
Kind of series: crystal structure; one Ca2+ at A-site; acetate; 30 mM CaCl2 in sample; No solution binding assay; crystals at 18 C, protein 10 mg/ml in 20 mM Tris pH 8.0, 200 mM NaCl, 1 mM DTT, protein:DNA 1:1.2; DNA2: phosphate-citrate pH 4.2, 20% PEG300; H180Q-DNA2-Ca2+: 0.1 M CHES pH 9.5, 20% PEG 8000; DNA3: 0.1 M HEPES pH 7.5, 0.8 M NaH2PO4, 0.8 M K2HPO4. As to conditions: protein: recombinant; tags: none expected (His-SUMO removed by Ulp1); single strand.

Series [2] addresses T2, HsMGME1 WT (Homo sapiens, UniProt Q9BQP7 21-344).
T2 sequence: T1 sequence with Q160H
Kind of series: crystal structure (1.75 A); CaCl2 in the sample (10 mM), but no Ca2+ bound at the active site; No solution binding assay; crystals at 18 C, protein 10 mg/ml in 20 mM Tris pH 8.0, 200 mM NaCl, 1 mM DTT, protein:DNA 1:1.2; DNA2: phosphate-citrate pH 4.2, 20% PEG300; H180Q-DNA2-Ca2+: 0.1 M CHES pH 9.5, 20% PEG 8000; DNA3: 0.1 M HEPES pH 7.5, 0.8 M NaH2PO4, 0.8 M K2HPO4. As to conditions: protein: recombinant; tags: none expected (His-SUMO removed by Ulp1); single strand.

Series [3] has as its target T2, HsMGME1 WT. Kind of series: crystal structure (Se-SAD and native); three of four molecules contact only the 3' overhang, one contacts duplex and overhang; No solution binding assay; crystals at 18 C, protein 10 mg/ml in 20 mM Tris pH 8.0, 200 mM NaCl, 1 mM DTT, protein:DNA 1:1.2; DNA2: phosphate-citrate pH 4.2, 20% PEG300; H180Q-DNA2-Ca2+: 0.1 M CHES pH 9.5, 20% PEG 8000; DNA3: 0.1 M HEPES pH 7.5, 0.8 M NaH2PO4, 0.8 M K2HPO4. As to conditions: protein: recombinant; tags: none expected (His-SUMO removed by Ulp1); self-complementary 6-bp duplex GGATCC, 3' overhang 12 nt on both strands; 2 copies of the strand.

On to AACAACAACAAC (ssDNA) [ssDNA2], for which the binding result in series [1] and in series [2] was “binds” throughout.

B1: DNA3 (mixed)
DNA 1: GGATCCTTCTTCTTCTTC
DNA 2: GGATCCTTCTTCTTCTTC
B1: the binding result in series [3] is “binds”.

(Values after publication PMC6237815, “Structural insights into DNA degradation by human mitochondrial nuclease MGME1”.)
